According to article PMC6471826, “Cold-Adapted Glutathione S-Transferases from Antarctic Psychrophilic Bacterium Halomonas sp. ANT108: Heterologous Expression, Characterization, and Oxidative Resistance” (Marine Drugs, 2019):

Tested on: O=[N+]([O-])c1ccc(Cl)c([N+](=O)[O-])c1
Experiment: purified protein
Conditions: co-substrate GSH, CDNB 0.5-4.5 mM, 25 °C

In the case of rHsGST (Halomonas sp.), the Km was 2860 µM and the kcat/Km was 18800 M⁻¹ s⁻¹.
